Ends that are not written are not given here. * marks the point of attachment. Biotin = O=C1N[C@H]2[C@H](CS[C@H]2CCCCC(=O)*)N1
What was measured:
[1] = target: human EGFRvIII protein, full length, on transfected cells (human) (UniProt P00533); assay: FACS, 293F-hEGFRvIII 1F3 cells
[2] = target: human EGFRvIII protein, full length, on transfected cells (human) (UniProt P00533); assay: FACS, 293F-hEGFRvIII 1C10 cells
[3] = target: human EGFRvIII protein, full length, on transfected cells (human) (UniProt P00533); assay: FACS, 293F-hEGFRvIII 1D11 cells
[4] = target: human EGFRvIII protein, full length, on transfected cells (human) (UniProt P00533); assay: FACS, U87MG-hEGFRvIII 1B3 cells
[5] = target: human EGFRvIII protein, full length, on transfected cells (human) (UniProt P00533); assay: FACS, U87MG-hEGFRvIII 1D1 cells
[6] = target: human EGFRvIII protein, full length, on transfected cells (human) (UniProt P00533); assay: FACS, U87MG-hEGFRvIII 1F9 cells
[7] = target: human EGFRvIII protein, full length, on transfected cells (human) (UniProt P00533); assay: FACS, U87MG-hEGFRvIII 2C3 cells
[8] = target: human EGFRvIII protein, full length, on transfected cells (human) (UniProt P00533); assay: FACS, U87MG-hEGFRvIII 2C6 cells
[9] = target: human EGFRvIII protein, full length, on transfected cells (human) (UniProt P00533); assay: FACS, U87MG-hEGFRvIII 2G2 cells
[10] = target: human EGFRvIII protein, full length, on transfected cells (human) (UniProt P00533); assay: FACS, CHO-K1-hEGFRvIII 1D9 cells
[11] = target: human EGFRvIII protein, full length, on transfected cells (human) (UniProt P00533); assay: FACS, CHO-K1-hEGFRvIII 1E3 cells
[12] = target: human EGFRvIII protein, full length, on transfected cells (human) (UniProt P00533); assay: FACS, CHO-K1-hEGFRvIII 2B3 cells
[13] = target: human EGFRvIII protein, full length, on transfected cells (human) (UniProt P00533); assay: FACS, CHO-K1-hEGFRvIII 1E10 cells
[14] = target: human EGFRvIII protein, full length, on transfected cells (human) (UniProt P00533); assay: FACS, CHO-K1-hEGFRvIII 1G10 cells
[15] = target: human EGFRvIII protein, full length, on transfected cells (human) (UniProt P00533); assay: FACS, CHO-K1-hEGFRvIII 2D11 cells
[16] = target: wild-type EGFR protein on the surfaces of A431 tumor cells and normal human primary hepatocytes (human) (UniProt P00533); assay: FACS, A431 tumor cells
[17] = target: wild-type EGFR protein on the surfaces of A431 tumor cells and normal human primary hepatocytes (human) (UniProt P00533); assay: FACS, normal human primary hepatocytes
[18] = target: T1, human EGFRvIII protein, full length, on transfected cells (human, UniProt P00533 25-1210); assay: FACS on CHOK-EGFRvIII cells
T1 construct: whole, on cells; stably transfected CHO-K1, U87MG and HEK293(F) cells; also called hEGFRvIII; mutant EGFRvIII protein

pep02 = target: T2, pep02; assay: peptide dot matrix ELISA
T2 peptide: EEKKGNYVVTDHGSCVK(Biotin)

pep08 = target: T3, pep08 (cysteine pairing not given here); assay: peptide dot matrix ELISA
T3 peptide: YVVTDHGSCVRACGADK(Biotin)

pep11 = target: T4, pep11 (cysteine pairing not given here); assay: peptide dot matrix ELISA
T4 peptide: TDHGSCVRACGADSYEK(Biotin)

pep16 = target: T5, pep16 (cysteine pairing not given here); assay: peptide dot matrix ELISA
T5 peptide: CVRACGADSYEMEEDGK(Biotin)

pep17 = target: T6, pep17; assay: peptide dot matrix ELISA
T6 peptide: VRACGADSYEMEEDGVK(Biotin)

pep18 = target: T7, pep18; assay: peptide dot matrix ELISA
T7 peptide: RACGADSYEMEEDGVRK(Biotin)

pep23 = target: T8, pep23 (cysteine pairing not given here); assay: peptide dot matrix ELISA
T8 peptide: DSYEMEEDGVRKCKKCK(Biotin)

pep24 = target: T9, pep24 (cysteine pairing not given here); assay: peptide dot matrix ELISA
T9 peptide: SYEMEEDGVRKCKKCEK(Biotin)

pep28 = target: T10, pep28 (cysteine pairing not given here); assay: peptide dot matrix ELISA
T10 peptide: EEDGVRKCKKCEGPCRK(Biotin)

pep31 = target: T11, pep31 (cysteine pairing not given here); assay: peptide dot matrix ELISA
T11 peptide: GVRKCKKCEGPCRKVCK(Biotin)

pep32 = target: T12, pep32 (cysteine pairing not given here); assay: peptide dot matrix ELISA
T12 peptide: VRKCKKCEGPCRKVCNK(Biotin)

pep33 = target: T13, pep33 (cysteine pairing not given here); assay: peptide dot matrix ELISA
T13 peptide: RKCKKCEGPCRKVCNGK(Biotin)

pep34 = target: T14, pep34 (cysteine pairing not given here); assay: peptide dot matrix ELISA
T14 peptide: KCKKCEGPCRKVCNGIK(Biotin)

pep35 = target: T15, pep35 (cysteine pairing not given here); assay: peptide dot matrix ELISA
T15 peptide: CKKCEGPCRKVCNGIGK(Biotin)

[19] = target: T16, human EGFRvIII-hFc protein (human, UniProt P00533 25-645); assay: ELISA, coated EGFRvIII-hFc, antibody 1 nM
T16 construct: extracellular domain; made in HEK293 cells, purified on protein A; also called immunogen A; hFc-tagged EGFRvIII protein; not shown: human IgG Fc fragment (hFc) of the pCpC vector
Method in brief: (§1)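 Binding of purified EGFRvIII antibody was measured on plates coated overnight at 4° C with 1.0 μg/mL EGFRvIII-hFc. After BSA blocking, antibody and then an HRP-conjugated secondary were each incubated 2 h at 37° C, and signal was taken as A450 nm.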

[20] = target: T16, human EGFRvIII-hFc protein; assay: ELISA, coated EGFRvIII-hFc, antibody 10 nM
Method in brief: as §1

[21] = target: T16, human EGFRvIII-hFc protein; assay: ELISA, coated EGFRvIII-hFc, antibody 0.1 nM
Method in brief: as §1

[22] = target: T16, human EGFRvIII-hFc protein; assay: ELISA, coated EGFRvIII-hFc, antibody 100 nM
Method in brief: as §1

[23] = target: T16, human EGFRvIII-hFc protein; assay: ELISA, coated EGFRvIII-hFc, antibody 0.01 nM
Method in brief: as §1

[24] = target: T16, human EGFRvIII-hFc protein; assay: ELISA, coated EGFRvIII-hFc, antibody 0.001 nM
Method in brief: as §1

[25] = target: T16, human EGFRvIII-hFc protein; assay: ELISA, coated EGFRvIII-hFc, antibody 0.0001 nM
Method in brief: as §1

[26] = target: T16, human EGFRvIII-hFc protein; assay: ELISA, plate coated with human EGFRvIII-hFc, HRP secondary antibody, absorbance at 450 nm
Procedure: The purified immunogen A (EGFRvIII-hFc) obtained in example 1 (for the preparation method, see step (I) in example 1) is diluted with PBS to a final concentration of 1.0 μg/mL, and then added to a 96-well ELISA plate at 100 μl/well. The plate is sealed with a plastic film and incubated at 4° C. overnight. The next day, the plate is washed twice with a plate washing solution [PBS+0.01% (v/v) Tween20], and added with a blocking solution [PBS+0.01% (v/v) Tween20+1% (w/w) BSA] for blocking 2 hours at room temperature. The blocking solution is discarded, and the purified EGFRvIII antibody obtained in example 2 is added at 100 μl/well. The plate is incubated for 2 hours at 37° C., and then washed 3 times with the plate washing solution [PBS+0.01% (v/v) Tween20]. The plate is added with an HRP (horseradish peroxidase) labeled secondary antibody (purchased from Sigma), incubated at 37° C. for 2 hours, and then washed 3 times with the plate washing solution [PBS+0.01% (v/v) Tween20]. The plate is added with 100 μl of TMB substrate/well, incubated for 30 minutes at room temperature, and then added with 100 μl of stopping solution (1.0N HCl)/well. A450 nm value is read using an ELISA plate reader (SpectraMax 384plus, purchased from Molecular Device), and the results are shown in FIG. 6 and table 10.

known EGFRvIII antibody (purchased from Absoluteantibody, #Ab00184-1.1)
cell mean fluorescence intensity [1]: 395
cell mean fluorescence intensity [2]: 458
cell mean fluorescence intensity [3]: 388
cell mean fluorescence intensity [4]: 66.9
cell mean fluorescence intensity [5]: 96.4
cell mean fluorescence intensity [6]: 68
cell mean fluorescence intensity [7]: 82.7
cell mean fluorescence intensity [8]: 178
cell mean fluorescence intensity [9]: 182
cell mean fluorescence intensity [10]: 457
cell mean fluorescence intensity [11]: 42
cell mean fluorescence intensity [12]: 109
cell mean fluorescence intensity [13]: 92
cell mean fluorescence intensity [14]: 563
cell mean fluorescence intensity [15]: 77

Negative control hIgG (antibody)
mean fluorescence intensity (MFI) [16]: 388 MFI
mean fluorescence intensity (MFI) [17]: 219 MFI

B1: c75G7C6-4 (antibody, human IgG1, V domains shown)
VH: EVQLQQSGPELVKPGASVKIPCKASGYTFTDYNMDWVKQSHGKSLEWIGDINPNNGDTIYNQKFKGKATLTVDKSSSTAYMELRSLTSEDTAVYYCARGDYSGYYPVYYAMDYWGQGTSVTVSS
VL: ENVLTQSPAIMSASPGEKVTMTCRASSSVSSSYLHWYQQKSGASPKLWIFSTSNLAAGVPARFSGSGSGTSYSLTVSSVEAEDAATYYCQQYSGYPLTFGAGTKLELK
notes: chimeric, human IgG1 / kappa; DG of heavy chain CDR3 mutated to SG; also called DG/SG mutant
fold decrease in binding ability compared to the wild-type chimeric antibody c75G7C6 [18]: 2.5 fold

B2: Chimeric antibody 75G7 (antibody, V domains shown)
VH: EVQLQQSGPELVKPGASVKIPCKASGYTFTDYNMDWVKQSHGKSLEWIGDINPNNGDTIYNQKFKGKATLTVDKSSSTAYMELRSLTSEDTAVYYCARGDYDGYYPVYYAMDYWGQGTSVTVSS
VL: ENVLTQSPAIMSASPGEKVTMTCRASSSVSSSYLHWYQQKSGASPKLWIFSTSNLAAGVPARFSGSGSGTSYSLTVSSVEAEDAATYYCQQYSGYPLTFGAGTKLELK
notes: also called c75G7C6
ELISA signal (pep02): 0.05
ELISA signal (pep08): 0.05
ELISA signal (pep11): 0.08
ELISA signal (pep16): 0.05
ELISA signal (pep17): 0.05
ELISA signal (pep18): 0.05
ELISA signal (pep23): 0.05
ELISA signal (pep24): 0.05
ELISA signal (pep28): 0.06
ELISA signal (pep31): 0.06
ELISA signal (pep32): 0.06
ELISA signal (pep33): 0.07
ELISA signal (pep34): 0.06
ELISA signal (pep35): 0.07

B3: Murine anti-43H6 (antibody, V domains shown)
VH: INAEYAGGPGLVKPSQSLSLTCTVTDYSITSDYAWNWIRQFPGNKLEWMGYISYSGNTNYNPSLKSRISITRDTSKNQFFLQLNSVTTEDTATYYCARLGRGFAYWGQGTLVTVSA
VL: DILMTQSPSSMSVSLGDTVSITCHASQDINSNIGWLQQKPGTSFKGLIYHGRNLEDGVPSRFSGSGSGEDYSLTISSLESEDFADYYCVQYAHFPPTFGAGTKLELK
notes: murine hybridoma antibody; also called 43H6A1
OD450 nm [19]: 3.86
OD450 nm [20]: 3.87
OD450 nm [21]: 1.39
OD450 nm [22]: 3.85
OD450 nm [23]: 0.25
OD450 nm [24]: 0.11
OD450 nm [25]: 0.09
EC50 (read off the curve) [26]: ~0.02 nM

Source: patent US20210032351A1 (XDCEXPLORER SHANGHAI, published 2021)
